Assay results published in the Human Domainome abundance scans (Beltran et al. 2025).
± gives the uncertainty stated by the source.

B1: SAM and SH3 domain-containing protein 1, residues 630 to 700; numbered along this chain, O94885 (parent)
chain: GRPPQPKSVEDLLDRINLKEHMPTFLFNGYEDLDTFKLLEEEDLDELNIRDPEHRAVLLTAVELLQEYDSN

Variants of: B1
Test: abundance fitness (aPCA) (normalised: wild type 0, dead -1); higher = more abundant; growth selection in yeast, the domain comes from the species named
Settings: Homo sapiens
GRPPQPKSVEDLLDRINLKEHMKTFLFNGYEDLDTFKLLEEEDLDELNIRDPEHRAVLLTAVELLQEYDSN [P23K] gave an abundance fitness of 0.043 ± 0.053.
Variant GRPPQPKSVEDLLDRINLKEHMPTFLFIGYEDLDTFKLLEEEDLDELNIRDPEHRAVLLTAVELLQEYDSN [N28I] has an abundance fitness of -1.08 ± 0.11.
In the case of GRPPQPKSVEDLLDRINLKEHMPTFLFNGYEDLDTFKLLEEEDLDELNIRDPEHRAVLLTAVELLTEYDSN [Q66T], the abundance fitness is reported as -0.347 ± 0.044.
Variant GRPPQPKYVEDLLDRINLKEHMPTFLFNGYEDLDTFKLLEEEDLDELNIRDPEHRAVLLTAVELLQEYDSN [S8Y] has an abundance fitness of -0.899 ± 0.085.
GRPPQPKSVEDLLDRINLKEHMPTFLFNGYEDLDTFKLLEEEDLDELNIRDPEHRSVLLTAVELLQEYDSN [A56S] showed an abundance fitness of 0.011 ± 0.031.
Work on GRPPQPKSMEDLLDRINLKEHMPTFLFNGYEDLDTFKLLEEEDLDELNIRDPEHRAVLLTAVELLQEYDSN [V9M] yielded an abundance fitness of -0.52 ± 0.07.
For GRPPQPKSQEDLLDRINLKEHMPTFLFNGYEDLDTFKLLEEEDLDELNIRDPEHRAVLLTAVELLQEYDSN [V9Q], the abundance fitness was -0.796 ± 0.087.
GRPPQPKSVEDLLDRINLKEHMPTFLFNGYEDLDTEKLLEEEDLDELNIRDPEHRAVLLTAVELLQEYDSN [F36E] gave an abundance fitness of -0.678 ± 0.097.
In the case of GRPPQPKSVEDLLDRINLKAHMPTFLFNGYEDLDTFKLLEEEDLDELNIRDPEHRAVLLTAVELLQEYDSN [E20A], the abundance fitness is reported as -0.699 ± 0.084.
Variant GRPPQPKSVEDLLDRIHLKEHMPTFLFNGYEDLDTFKLLEEEDLDELNIRDPEHRAVLLTAVELLQEYDSN [N17H] has an abundance fitness of -0.2 ± 0.049.
Work on GRPPQPKSVEDLLDRINLKEHMPTFLFNGYEDLDTFKLLEEEDLDELNIRDPEHRAVLVTAVELLQEYDSN [L59V] yielded an abundance fitness of -0.735 ± 0.058.
GRPPQPKSVEDLLDRINLKEHMPTFLFNGYEDLDTFKLLEEEDLDELNIRDPEHRAVLNTAVELLQEYDSN [L59N] gave an abundance fitness of -0.491 ± 0.063.
Variant GRPPQPKSVEDLLDRINLKEHMPTFLFNLYEDLDTFKLLEEEDLDELNIRDPEHRAVLLTAVELLQEYDSN [G29L] has an abundance fitness of -0.907 ± 0.063.
In the case of GRPPQPKSVEDLLDRINLKEHMPTILFNGYEDLDTFKLLEEEDLDELNIRDPEHRAVLLTAVELLQEYDSN [F25I], the abundance fitness is reported as -0.687 ± 0.081.
Work on GRPPQPKSVEDLLDCINLKEHMPTFLFNGYEDLDTFKLLEEEDLDELNIRDPEHRAVLLTAVELLQEYDSN [R15C] yielded an abundance fitness of -0.374 ± 0.059.
For GRPPQPKSVEDLLDAINLKEHMPTFLFNGYEDLDTFKLLEEEDLDELNIRDPEHRAVLLTAVELLQEYDSN [R15A], the abundance fitness was 0.055 ± 0.038.
For GRPPQPKSVEDLLDRINLKEHMPTFLFNGYEDLDTFKLLEEEDLDELNIRDPEHRAVLLTAVELLQEYRSN [D69R], the abundance fitness was -0.531 ± 0.058.
GRPPQPKSVEDLLDRINLKEHMPTFLFNGYEDLDTFKLLEEEDLDELNIRDPEHRAVLLTAVELLQFYDSN [E67F] showed an abundance fitness of -0.609 ± 0.063.
GRPPQPKSVENLLDRINLKEHMPTFLFNGYEDLDTFKLLEEEDLDELNIRDPEHRAVLLTAVELLQEYDSN [D11N] showed an abundance fitness of -0.605 ± 0.067.
For GRPPQPKSVEVLLDRINLKEHMPTFLFNGYEDLDTFKLLEEEDLDELNIRDPEHRAVLLTAVELLQEYDSN [D11V], the abundance fitness was -0.852 ± 0.068.
GRPPQPKSVEDLLDRINLKEHMPTFLFNGYEDLDTFKLLEEEDLDELNIRDCEHRAVLLTAVELLQEYDSN [P52C] showed an abundance fitness of -0.565 ± 0.064.
GRPPQPKSVEDLLDRINLKEHMPTFLFNGYEDLDTFKLLEEHDLDELNIRDPEHRAVLLTAVELLQEYDSN [E42H] showed an abundance fitness of 0.055 ± 0.041.
Variant GRPPQPKSVEDLLDRINLKEHNPTFLFNGYEDLDTFKLLEEEDLDELNIRDPEHRAVLLTAVELLQEYDSN [M22N] has an abundance fitness of -0.503 ± 0.056.
GRPPQPKSVEDLLDRINLKEHMPTFLFNGYEDLDTFKLLEEEDLDELNIRDPEHRAVLLTAVELLQEYDSP [N71P] showed an abundance fitness of 0.005 ± 0.051.
Work on GRPPQPKSVEDLLIRINLKEHMPTFLFNGYEDLDTFKLLEEEDLDELNIRDPEHRAVLLTAVELLQEYDSN [D14I] yielded an abundance fitness of -0.293 ± 0.054.
For GRPPQPKSVEDLLGRINLKEHMPTFLFNGYEDLDTFKLLEEEDLDELNIRDPEHRAVLLTAVELLQEYDSN [D14G], the abundance fitness was -0.218 ± 0.055.
GRMPQPKSVEDLLDRINLKEHMPTFLFNGYEDLDTFKLLEEEDLDELNIRDPEHRAVLLTAVELLQEYDSN [P3M] showed an abundance fitness of 0.008 ± 0.049.
Variant GRPPQNKSVEDLLDRINLKEHMPTFLFNGYEDLDTFKLLEEEDLDELNIRDPEHRAVLLTAVELLQEYDSN [P6N] has an abundance fitness of -0.792 ± 0.11.
With GRPPQKKSVEDLLDRINLKEHMPTFLFNGYEDLDTFKLLEEEDLDELNIRDPEHRAVLLTAVELLQEYDSN [P6K] the abundance fitness was -0.63 ± 0.1.
Variant GRPPQPKSVEDDLDRINLKEHMPTFLFNGYEDLDTFKLLEEEDLDELNIRDPEHRAVLLTAVELLQEYDSN [L12D] has an abundance fitness of -0.784 ± 0.089.
Work on GRPPQPKSVEDILDRINLKEHMPTFLFNGYEDLDTFKLLEEEDLDELNIRDPEHRAVLLTAVELLQEYDSN [L12I] yielded an abundance fitness of -0.328 ± 0.067.
For GRPPQPKSVEDLLDRINLKEHMPTFLFNGFEDLDTFKLLEEEDLDELNIRDPEHRAVLLTAVELLQEYDSN [Y30F], the abundance fitness was 0.058 ± 0.044.
For GRPPQPKSVEDLLDRINLKEHMPTFLFNGWEDLDTFKLLEEEDLDELNIRDPEHRAVLLTAVELLQEYDSN [Y30W], the abundance fitness was -0.012 ± 0.054.
In the case of GRPPQPKSVEDLLDRINLKEHMPTFLFNGYEDLDTFKLLEEEDQDELNIRDPEHRAVLLTAVELLQEYDSN [L44Q], the abundance fitness is reported as -0.873 ± 0.089.
GRPPQPKSVEDLLDRINLKEHMPTFLFNGYEDLDTFKLLEEEDEDELNIRDPEHRAVLLTAVELLQEYDSN [L44E] showed an abundance fitness of -0.757 ± 0.077.
With GRPPQPKSVEDLLDRINLKEHMPTFLFNGYEDLDTFKLLEEEDLDELNIRDPETRAVLLTAVELLQEYDSN [H54T] the abundance fitness was -0.093 ± 0.045.
Variant GRPPQPKSVEDLLDRINLKEHMPTFLFNGYEDLDTFKLLEEEDLDELNIRDPEPRAVLLTAVELLQEYDSN [H54P] has an abundance fitness of -0.733 ± 0.066.
In the case of GRPPQPKSVEDLLDRINLKEHMPTFLFNGYEDLDTFKLLEEEQLDELNIRDPEHRAVLLTAVELLQEYDSN [D43Q], the abundance fitness is reported as -0.142 ± 0.041.
